# Measurements published in PMC3282699, “S. pombe Kinesins-8 Promote Both Nucleation and Catastrophe of Microtubules” (PLoS ONE, 2012).
# T1: Klp5FLGST (S. pombe, UniProt O14343 1-883)
# T1 construct: Klp5, kinesin-8 of S. pombe, amino acids 1-883; it was only obtained co-expressed with Klp6FLHis; The cloning of this plasmid is not described in the methods; also called full-length Klp5; not shown: GST, C-terminal, kept
# T1 sequence (looked up): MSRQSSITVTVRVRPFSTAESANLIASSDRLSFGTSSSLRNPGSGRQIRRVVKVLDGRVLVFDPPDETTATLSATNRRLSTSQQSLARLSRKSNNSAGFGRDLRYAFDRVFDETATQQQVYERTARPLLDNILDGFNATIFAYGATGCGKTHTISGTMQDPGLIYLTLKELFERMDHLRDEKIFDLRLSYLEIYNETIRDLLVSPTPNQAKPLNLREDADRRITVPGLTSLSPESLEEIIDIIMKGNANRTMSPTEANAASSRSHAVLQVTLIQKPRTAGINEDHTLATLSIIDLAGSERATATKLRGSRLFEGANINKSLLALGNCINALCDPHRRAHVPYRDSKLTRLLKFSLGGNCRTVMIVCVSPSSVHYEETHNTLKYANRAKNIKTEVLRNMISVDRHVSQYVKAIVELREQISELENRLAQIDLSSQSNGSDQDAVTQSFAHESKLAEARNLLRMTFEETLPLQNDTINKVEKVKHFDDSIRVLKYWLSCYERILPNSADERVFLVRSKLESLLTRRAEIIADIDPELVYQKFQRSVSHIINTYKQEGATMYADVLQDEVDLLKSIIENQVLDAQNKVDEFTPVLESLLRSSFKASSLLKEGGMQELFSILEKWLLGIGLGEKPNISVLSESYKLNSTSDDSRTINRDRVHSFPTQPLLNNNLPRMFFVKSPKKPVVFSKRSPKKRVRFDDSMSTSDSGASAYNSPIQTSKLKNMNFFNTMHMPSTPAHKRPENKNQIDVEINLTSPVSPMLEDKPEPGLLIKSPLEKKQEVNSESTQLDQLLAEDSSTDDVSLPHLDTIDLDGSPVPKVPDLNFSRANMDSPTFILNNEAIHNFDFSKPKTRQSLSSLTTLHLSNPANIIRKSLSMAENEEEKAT
# B1: Klp6_(440)His, O59751 1-440 (domain or fragment)
# chain: MKEGSSISVAVRVRPFTEREKGLLAETPKSKEFLGDGSLAVSNTSSNTFCTNGIRKIVRVLDDNVLIFDPPEENPLAKVQKSLLPAGKRFRDVRYAFDRLFGEEASQEDVYKGTTEPLLDSVLQGYNATVFAYGATGCGKTHTISGRPDDPGIIFLTMRALLDRVEGLKRTMNVDISVSYLEIYNEKIRDLLVQDPLSMEKPKSLNICEDAEQNVSVPGLSYFTPTNLEEVMEIIIRGNSNRTMSPTEANAVSSRSHAVLQIYITQTPKSGEKQEESESQNSHKVRSVFSFIDLAGSERASATKNRGKRLVEGANINRSLLALGNCINSLCEPRRRQHVPYRDSKLTRLLKFSLGGNCRTCMIVCISPSSEHYDETHNTLKYGNRAKNIKTKVSRNVVSVDRHVSEYVRTIYELRQKVSILQKRIAEESKQLALNKEVRK
# B2: Klp6_(440)His (domain or fragment, S. pombe, UniProt O59751 1-440, looked up)
# chain: MKEGSSISVAVRVRPFTEREKGLLAETPKSKEFLGDGSLAVSNTSSNTFCTNGIRKIVRVLDDNVLIFDPPEENPLAKVQKSLLPAGKRFRDVRYAFDRLFGEEASQEDVYKGTTEPLLDSVLQGYNATVFAYGATGCGKTHTISGRPDDPGIIFLTMRALLDRVEGLKRTMNVDISVSYLEIYNEKIRDLLVQDPLSMEKPKSLNICEDAEQNVSVPGLSYFTPTNLEEVMEIIIRGNSNRTMSPTEANAVSSRSHAVLQIYITQTPKSGEKQEESESQNSHKVRSVFSFIDLAGSERASATKNRGKRLVEGANINRSLLALGNCINSLCEPRRRQHVPYRDSKLTRLLKFSLGGNCRTCMIVCISPSSEHYDETHNTLKYGNRAKNIKTKVSRNVVSVDRHVSEYVRTIYELRQKVSILQKRIAEESKQLALNKEVRK
# notes: Klp6 of S. pombe, amino acids 1-440: motor domain and complete putative coiled-coil domain; Homodimer by Superose 12 gel filtration; also called Klp6(aa1-440)/GlyGly/6xHis tag; Klp440His; source: E. coli Rosetta 2 (DE3), purified (HisTrap); not shown: His6 (after a GlyGly linker), C-terminal, kept
# B3: Klp5_(436)GST (domain or fragment)
# chain: MSRQSSITVTVRVRPFSTAESANLIASSDRLSFGTSSSLRNPGSGRQIRRVVKVLDGRVLVFDPPDETTATLSATNRRLSTSQQSLARLSRKSNNSAGFGRDLRYAFDRVFDETATQQQVYERTARPLLDNILDGFNATIFAYGATGCGKTHTISGTMQDPGLIYLTLKELFERMDHLRDEKIFDLRLSYLEIYNETIRDLLVSPTPNQAKPLNLREDADRRITVPGLTSLSPESLEEIIDIIMKGNANRTMSPTEANAASSRSHAVLQVTLIQKPRTAGINEDHTLATLSIIDLAGSERATATKLRGSRLFEGANINKSLLALGNCINALCDPHRRAHVPYRDSKLTRLLKFSLGGNCRTVMIVCVSPSSVHYEETHNTLKYANRAKNIKTEVLRNMISVDRHVSQYVKAIVELREQISELENRLAQIDLSSQSN
# B4: Klp5_(436)GST, O14343 1-436 (domain or fragment)
# chain: MSRQSSITVTVRVRPFSTAESANLIASSDRLSFGTSSSLRNPGSGRQIRRVVKVLDGRVLVFDPPDETTATLSATNRRLSTSQQSLARLSRKSNNSAGFGRDLRYAFDRVFDETATQQQVYERTARPLLDNILDGFNATIFAYGATGCGKTHTISGTMQDPGLIYLTLKELFERMDHLRDEKIFDLRLSYLEIYNETIRDLLVSPTPNQAKPLNLREDADRRITVPGLTSLSPESLEEIIDIIMKGNANRTMSPTEANAASSRSHAVLQVTLIQKPRTAGINEDHTLATLSIIDLAGSERATATKLRGSRLFEGANINKSLLALGNCINALCDPHRRAHVPYRDSKLTRLLKFSLGGNCRTVMIVCVSPSSVHYEETHNTLKYANRAKNIKTEVLRNMISVDRHVSQYVKAIVELREQISELENRLAQIDLSSQSN
# B5: Klp5_(436) (domain or fragment)
# chain: MSRQSSITVTVRVRPFSTAESANLIASSDRLSFGTSSSLRNPGSGRQIRRVVKVLDGRVLVFDPPDETTATLSATNRRLSTSQQSLARLSRKSNNSAGFGRDLRYAFDRVFDETATQQQVYERTARPLLDNILDGFNATIFAYGATGCGKTHTISGTMQDPGLIYLTLKELFERMDHLRDEKIFDLRLSYLEIYNETIRDLLVSPTPNQAKPLNLREDADRRITVPGLTSLSPESLEEIIDIIMKGNANRTMSPTEANAASSRSHAVLQVTLIQKPRTAGINEDHTLATLSIIDLAGSERATATKLRGSRLFEGANINKSLLALGNCINALCDPHRRAHVPYRDSKLTRLLKFSLGGNCRTVMIVCVSPSSVHYEETHNTLKYANRAKNIKTEVLRNMISVDRHVSQYVKAIVELREQISELENRLAQIDLSSQSN
# B6: Klp6FLHis (natural protein, S. pombe, UniProt O59751 1-784, looked up)
# chain: MKEGSSISVAVRVRPFTEREKGLLAETPKSKEFLGDGSLAVSNTSSNTFCTNGIRKIVRVLDDNVLIFDPPEENPLAKVQKSLLPAGKRFRDVRYAFDRLFGEEASQEDVYKGTTEPLLDSVLQGYNATVFAYGATGCGKTHTISGRPDDPGIIFLTMRALLDRVEGLKRTMNVDISVSYLEIYNEKIRDLLVQDPLSMEKPKSLNICEDAEQNVSVPGLSYFTPTNLEEVMEIIIRGNSNRTMSPTEANAVSSRSHAVLQIYITQTPKSGEKQEESESQNSHKVRSVFSFIDLAGSERASATKNRGKRLVEGANINRSLLALGNCINSLCEPRRRQHVPYRDSKLTRLLKFSLGGNCRTCMIVCISPSSEHYDETHNTLKYGNRAKNIKTKVSRNVVSVDRHVSEYVRTIYELRQKVSILQKRIAEESKQLALNKEVRKISSREIKMLDARSMLKNSFDGSRDLQKSLIEHVRTLRRIEDEITLTKMWISIAKESDAMSGHNIKSVETRLAKLYDQRSLITAKVNPEEICKTFQNSISHIVSSFKGEGADMYADMLQDDVDLLKSIIENQILDAKHESETFSSTSRKLIQNLFLLFPLLPGNAIDVNESLARAFDQLVGIVPSEPTIQVPNLIEKGKAPLLSMFEIPRSPSRFKARSPSKAARVLKKPLKKRVRFSEVPTTSSVPPVEIKNKDSKPKVEKSLDKHNMNNDRSFLVPSRDARNSLTSLSLHSNVAKNKSSHSSKWPTHTLSPIITTALKQPVRRISLVSQPLQKTGGTENTPNA
# notes: Klp6, kinesin-8 of S. pombe, amino acids 1-784; also called full-length Klp6; Klp6(aa1-784)/GlyGly/6xHis tag; not shown: His6 (after a GlyGly linker), C-terminal, kept
# Experiments:
# Klp6_(440)His (S. pombe) = Klp6_(440)His (S. pombe) (UniProt O59751)
# [1] = molecular target: S. pombe tubulin heterodimer (S. pombe), P04688
# S. pombe tubulin heterodimer (S. pombe), P04688, sequence (P04688 whole entry, chain 1 of 2): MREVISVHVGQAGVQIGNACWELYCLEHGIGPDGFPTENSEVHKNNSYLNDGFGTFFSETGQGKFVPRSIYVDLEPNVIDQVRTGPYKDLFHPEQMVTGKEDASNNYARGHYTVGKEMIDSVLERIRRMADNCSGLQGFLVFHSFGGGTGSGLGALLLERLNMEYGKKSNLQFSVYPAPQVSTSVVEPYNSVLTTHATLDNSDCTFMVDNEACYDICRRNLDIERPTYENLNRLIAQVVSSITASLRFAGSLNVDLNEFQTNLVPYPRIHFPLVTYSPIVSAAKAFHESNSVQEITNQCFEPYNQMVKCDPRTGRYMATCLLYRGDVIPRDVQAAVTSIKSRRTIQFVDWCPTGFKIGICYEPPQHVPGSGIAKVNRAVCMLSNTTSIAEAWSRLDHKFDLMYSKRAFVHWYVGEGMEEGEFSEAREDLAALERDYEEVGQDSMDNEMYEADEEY
# S. pombe tubulin heterodimer (S. pombe), P04688, sequence (P05219 whole entry, chain 2 of 2, further chain): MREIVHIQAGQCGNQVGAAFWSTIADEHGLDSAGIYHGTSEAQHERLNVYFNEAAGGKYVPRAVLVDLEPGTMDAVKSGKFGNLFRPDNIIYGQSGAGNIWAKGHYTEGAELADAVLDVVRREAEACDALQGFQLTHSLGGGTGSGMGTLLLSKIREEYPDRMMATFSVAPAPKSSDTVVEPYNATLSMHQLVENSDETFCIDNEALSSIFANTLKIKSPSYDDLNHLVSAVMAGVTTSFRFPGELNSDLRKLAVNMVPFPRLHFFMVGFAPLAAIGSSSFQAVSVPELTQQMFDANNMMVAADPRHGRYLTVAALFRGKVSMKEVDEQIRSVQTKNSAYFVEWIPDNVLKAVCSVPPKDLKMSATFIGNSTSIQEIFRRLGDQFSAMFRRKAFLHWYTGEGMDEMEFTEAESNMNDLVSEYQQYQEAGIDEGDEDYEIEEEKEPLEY
# [2] = molecular target: S. pombe GMPCPP microtubules (S. pombe), P04688
# [3] = molecular target: the molecule itself; assay: SEC; Superose-12 HR 10/300 GL at 4°C, 0.5 ml/min, 100 mM PIPES, 200 mM NaCl, 1 mM MgCl2, 2 mM EDTA, pH 6.9; elution compared with Ovalbumin (43 kDa) and Bovine Serum Albumin (67 kDa)
# [4] = molecular target: S. pombe single isoform (α1β) tubulin heterodimer (S. pombe) (UniProt P04688); assay: SEC; 15 µM tubulin with 10.7 µM dimeric Klp6_(440)His incubated at 4°C for 30 min in 80 mM PIPES, 2.5 mM MgCl2, 1 mM EDTA, 1.5 mM GMPCPP, 1 mM DTT pH 6.9; Superose-12 at 4°C; fractions on SDS-PAGE, fluorescent stain quantified
# [5] = molecular target: Taxol stabilised pig brain microtubules (pig) (UniProt P02550)
# [6] = molecular target: S. pombe GMPCPP microtubules (S. pombe) (UniProt P04688)
# [7] = molecular target: pig brain tubulin heterodimer (pig) (UniProt P02550)
# pig brain tubulin heterodimer (pig), sequence (P02550 whole entry, chain 1 of 2): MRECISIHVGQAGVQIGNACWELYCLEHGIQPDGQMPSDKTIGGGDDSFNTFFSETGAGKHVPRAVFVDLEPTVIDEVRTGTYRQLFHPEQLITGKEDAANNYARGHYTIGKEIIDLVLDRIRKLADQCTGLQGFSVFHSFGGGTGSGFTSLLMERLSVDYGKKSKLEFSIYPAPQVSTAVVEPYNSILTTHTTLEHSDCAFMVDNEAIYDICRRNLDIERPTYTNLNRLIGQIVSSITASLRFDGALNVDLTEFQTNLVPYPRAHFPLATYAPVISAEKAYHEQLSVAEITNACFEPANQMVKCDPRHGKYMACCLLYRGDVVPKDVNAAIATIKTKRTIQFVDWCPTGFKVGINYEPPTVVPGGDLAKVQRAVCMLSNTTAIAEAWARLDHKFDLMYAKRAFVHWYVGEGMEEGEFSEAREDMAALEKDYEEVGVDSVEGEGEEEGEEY
# pig brain tubulin heterodimer (pig), sequence (Q767L7 whole entry, chain 2 of 2, further chain): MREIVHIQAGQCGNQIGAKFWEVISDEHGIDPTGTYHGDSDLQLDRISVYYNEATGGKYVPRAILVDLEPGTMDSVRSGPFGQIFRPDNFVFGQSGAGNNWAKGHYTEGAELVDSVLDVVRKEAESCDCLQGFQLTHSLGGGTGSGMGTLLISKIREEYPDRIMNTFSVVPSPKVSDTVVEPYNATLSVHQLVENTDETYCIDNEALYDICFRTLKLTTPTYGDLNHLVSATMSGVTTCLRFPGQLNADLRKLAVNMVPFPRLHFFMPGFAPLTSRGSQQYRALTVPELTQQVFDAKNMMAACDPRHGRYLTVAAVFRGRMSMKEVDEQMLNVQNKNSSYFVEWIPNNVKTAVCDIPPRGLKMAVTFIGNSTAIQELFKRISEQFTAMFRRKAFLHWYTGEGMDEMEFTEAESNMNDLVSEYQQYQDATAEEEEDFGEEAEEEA
# [8] = molecular target: S. pombe tubulin heterodimer (S. pombe) (UniProt P04688)
# S. pombe tubulin heterodimer (S. pombe), sequence (P04688 whole entry, chain 1 of 2): as the sequence (P04688 whole entry, chain 1 of 2) above
# S. pombe tubulin heterodimer (S. pombe), sequence (P05219 whole entry, chain 2 of 2, further chain): as the sequence (P05219 whole entry, chain 2 of 2, further chain) above
# Klp5FLGST = molecular target: T1, Klp5FLGST; assay: pull-down; co-expressed in E. coli; sequential affinity purification from the bacterial lysate by the His tag (Ni column) and then the GST tag (eluted with 10 mM glutathione); SDS-PAGE, densitometry; conditions: partners not purified
molecule,measurement,setting,value
S. pombe tubulin heterodimer (from UniProt P04688 1-455; P05219 1-448) (complex),Ki of tubulin heterodimers for inhibition of the Klp6 (440)His ATPase stimulated by 73 nM Taxol stabilised pig brain microtubules (blocked pair: m3 with m12),Klp6_(440)His (S. pombe),121 nM
pig brain tubulin heterodimer (from UniProt P02550 1-451; Q767L7 1-444) (complex),Ki of tubulin heterodimers for inhibition of the Klp6 (440)His ATPase stimulated by 73 nM Taxol stabilised pig brain microtubules (blocked pair: m3 with m12),Klp6_(440)His (S. pombe),175 nM
B1,"Km of the tubulin heterodimer stimulated ATPase (S. pombe tubulin), linked assay at 25°C",[1],0.373 µM
same,"Km of the microtubule stimulated ATPase (S. pombe GMPCPP microtubules), linked assay at 25°C",[2],0.056 µM
B2,stoichiometry N,[3],2
same,stoichiometry N (tubulin heterodimer per kinesin head),[4],1
same,"Km of the microtubule stimulated ATPase (Taxol stabilised pig brain microtubules), linked assay at 25°C",[5],0.085 µM
B3,"Km of the microtubule stimulated ATPase (Taxol stabilised pig brain microtubules), linked assay at 25°C",[5],0.0278 µM
B4,"Km of the tubulin heterodimer stimulated ATPase (S. pombe tubulin), linked assay at 25°C",[1],0.108 µM
same,"Km of the microtubule stimulated ATPase (S. pombe GMPCPP microtubules), linked assay at 25°C",[2],0.045 µM
B5,"Km of the microtubule stimulated ATPase (S. pombe GMPCPP microtubules), linked assay at 25°C",[6],0.05 µM
same,"Km of the tubulin heterodimer stimulated ATPase (pig brain tubulin), linked assay at 25°C",[7],0.427 µM
same,"Km of the microtubule stimulated ATPase (Taxol stabilised pig brain microtubules), linked assay at 25°C",[5],0.045 µM
same,"Km of the tubulin heterodimer stimulated ATPase (S. pombe tubulin), linked assay at 25°C",[8],0.336 µM
B6,molar ratio of Klp6FLHis : Klp5FLGST in the sequentially purified fraction,Klp5FLGST,3.2 Klp6FLHis per Klp5FLGST
